In the test the target is T1, CXCR2 of mouse DRG neurons (mouse (endogenous in DRG)) (UniProt P35343).
T1 sequence: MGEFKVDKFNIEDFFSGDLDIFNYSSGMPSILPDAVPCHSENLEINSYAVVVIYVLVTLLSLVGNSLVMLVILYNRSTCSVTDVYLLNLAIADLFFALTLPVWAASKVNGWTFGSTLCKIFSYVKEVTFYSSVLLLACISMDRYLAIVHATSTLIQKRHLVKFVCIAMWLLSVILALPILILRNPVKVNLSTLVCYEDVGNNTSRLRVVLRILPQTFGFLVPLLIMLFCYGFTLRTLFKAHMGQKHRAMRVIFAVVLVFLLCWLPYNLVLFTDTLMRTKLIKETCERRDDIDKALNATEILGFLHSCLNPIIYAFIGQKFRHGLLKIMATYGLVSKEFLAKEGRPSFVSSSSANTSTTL

B1: recombinant mouse CXCL5 (ligand)
chain: APSSVIAATELRCVCLTVTPKINPKLIANLEVIPAGPQCPTVEVIAKLKNQKEVCLDPEAPVIKKIIQKILGSDKKKAKRNALAVERTASVQ
In turn, B1 returned an EC50 of the Ca^2+ response of cultured mouse DRG neurons to CXCL5 (Fura-2 imaging, dose-response) of 24.8 nM.

For the origin of these results see article PMC11021482.
